In US9518268B2, “Drought tolerant transgenic plants and method of making same” (PURDUE RESEARCH FOUNDATION, priority 2013, dated 2016):
Substitutions are numbered along the chain they refer to. Names may count otherwise.

B1: PYL11-K39Q/L66F (protein)
chain: METSQKYHTCGSTLVQTIDAPLSLVWSILRRFDNPQAYQQFVKTCNLSSGDGGEGSVREVTVVSGFPAEFSRERLDELDDESHVMMISIIGGDHRLVNYRSKTMAFVAADTEEKTVVVESYVVDVPEGNSEEETTSFADTIVGFNLKSLAKLSERVAHLKL
B2: PYR1: Arabidopsis thaliana ABA receptor protein PYR1, AT4G17870 (protein, listed as Arabidopsis thaliana)
chain: MPSELTPEERSELKNSIAEFHTYQLDPGSCSSLHAQRIHAPPELVWSIVRRFDKPQTYKHFIKSCSVEQNFEMRVGCTRDVIVISGLPANTSTERLDILDDERRVTGFSIIGGEHRLTNYKSVTTVHRFEKENRIWTVVLESYVVDMPEGNSEDDTRMFADTVVKLNLQKLATVAEAMARNSGDGSGSQVT
B3: PYL9-K63Q/L89F (protein)
chain: MMDGVEGGTAMYGGLETVQYVRTHHQHLCRENQCTSALVKHIKAPLHLVWSLVRRFDQPQKYQPFVSRCTVIGDPEIGSLREVNVKSGFPATTSTERLELLDDEEHILGIKIIGGDHRLKNYSSILTVHPEIIEGRAGTMVIESFVVDVPQGNTKDETCYFVEALIRCNLKSLADVSERLASQDITQ
B4: Q38K/F71L (protein)
chain: MESSKQKRCRSSVVETIEAPLPLVWSILRSFDKPQAYKRFVKSCTMRSGGGGGKGGEGKGSVRDVTLVSGLPADFSTERLEELDDESHVMVVSIIGGNHRLVNYKSKTKVVASPEDMAKKTVVVESYVVDVPEGTSEEDTIFFVDNIIRYNLTSLAKLTKKMMK
B5: Q38K/F71L/T135N (protein)
chain: B4 chain with T135N
B6: Q38K/F71L/N98D/T135N (protein)
chain: B4 chain with N98D, T135N
B7: Q38K/F71L/N98D (protein)
chain: B4 chain with N98D

Columns and labels:
RD29B-LUC expression [1] = assay: Reconstituted ABA signaling pathway, transient expression in wild-type (Col-0) protoplasts; format: cell-based, Arabidopsis; conditions: for ABA-dependent induction of RD29B-LUC expression: co-transfected with ABI1, SnRK2.6 and ABF2, without or with 5 μM ABA, 4.5 h
Experimental: To test whether PYL13 can act as an ABA receptor, the ABA signaling pathway in wild-type protoplasts was reconstituted. Turning now to FIG. 1, wild-type (Col-0) protoplasts were used in both panels A and B. After transfection, the protoplasts were incubated for 4.5 hours under light in the absence of ABA (open bars) or in the presence of 5 μM ABA (closed bars). Error bars indicate s.e.m. (n=3). […] ZmUBQ-GUS was used as the internal control. […] Instead, the ABA signaling pathway was reconstituted by co-expression of PYLs, ABI1, SnRK2.6, and ABF2. […] Therefore, the response of other members of the PYL family would not predict the response of PYL13 expression or over-expression in plants.
PYL13 interacts with all clade A PP2Cs tested but binds most strongly to PP2CA. To investigate whether PYL13 inhibits PP2Cs in planta, PYL13 was co-expressed with all clade A PP2Cs in wild-type protoplasts, as shown in FIG. 4. Transfections of all PP2Cs together with SnRK2.6 and ABF2 inhibited RD29B-LUC expression to different degrees, see FIG. 4A, and the degree of inhibition was correlated with the intensity of interaction between PP2Cs and SnRK2.6 (Fujii et al., 2009). […] The ABA signaling pathway was reconstituted by co-expression of PYLs, PP2Cs, SnRK2.6, and ABF2. RD29B-LUC was used as the ABA-responsive reporter. ZmUBQ-GUS was used as the internal control. After transfection, protoplasts were incubated for 4.5 h under light in the absence of ABA (open bars) or in the presence of 5 μM ABA (closed bars). Error bars indicate s.e.m. (n=9).
To investigate the physiological significance of the binding between PYL13 and PYLs in vivo, PYL13 was co-expressed with one of the other PYLs, ABI1, SnRK2.6, and ABF2 in wild-type protoplasts. When the transfected PYL13 plasmid was 2-fold of that of the other PYLs, co-transfections with PYL13 decreased the activity of the ABA-responsive PYLs (FIG. 5E). […] ZmUBQ-GUS was used as the internal control. After transfection, protoplasts were incubated for 4.5 h under light in the absence of ABA (open bars) or in the presence of 5 μM ABA (closed bars). Error bars indicate s.e.m. (n=3).
The ABA signaling pathway was reconstituted by co-expression of PYL13, PYLs, ABI1, SnRK2.6, and ABF2. […] Error bars indicate s.e.m. (n=3). […] Without wishing to be bound by theory, PYL13 inhibition of other PYLs might result from direct interactions between PYL13 and other PYLs or from competition for the binding sites on PP2Cs.
(§1) Assays for transient expression in protoplasts were performed as described (Fujii et al., 2009). Leaf strips (0.5 mm) were cut from the middle part of second leaves using a razor blade (VWR SCIENTIFIC) and submerged in 15 mL of enzyme solution containing 20 mM MES, pH 5.7, 1.5% (w/v) cellulase R10 (YAKULT PHARMACEUTICAL INDUSTRY), 0.4% (w/v) macerozyme R10 (YAKULT PHARMACEUTICAL INDUSTRY), 0.4 M mannitol, 20 mM KCl, 10 mM CaCl2, 1 mM 2-mercaptoethanol, and 0.1% BSA. The leaves were vacuum infiltrated for 30 min and then incubated without shaking for 3 h in the dark at room temperature. The enzyme/protoplast solution was diluted with 15 mL of W5 solution (2 mM MES, pH 5.7, 154 mM NaCl, 125 mM CaCl2, and 5 mM KCl) and filtered with a 75-μm nylon mesh. Protoplasts were centrifuged at 100 g for 2 min in a 30-mL round-bottomed tube (SARSTEDT), resuspended in W5 solution, and rested for 30 min at room temperature.
Before transfection, protoplasts were changed into MMg solution (4 mM MES, pH 5.7, 0.4 M mannitol, and 15 mM MgCl2) to a final concentration of 2×10^5 cells per microliter. Protoplasts (100 μl) were gently and thoroughly mixed with the plasmid DNA mixture (less than 10 μl) and 110 μl of PEG solution (40% w/v PEG-4000, 0.2 M mannitol, and 100 mM CaCl2), incubated for 5 min, washed with 440 μl of W5 solution, and resuspended in 50 μl of WI solution (4 mM MES, pH 5.7, 0.5 M mannitol, and 20 mM KCl). After transfection, protoplasts were incubated in WI solution without ABA or with 5 μM ABA under light. […]

RD29B-LUC expression [2] = assay: ABA-independent induction of RD29B-LUC in triple mutant protoplasts; format: cell-based, Arabidopsis; conditions: for ABA-independent RD29B-LUC expression, as share of that in the presence of 5 μM ABA: abi1/hab1/abi2 and abi1hab1pp2ca triple mutant protoplasts, with SnRK2.6 and ABF2
Excerpt: The basal RD29B-LUC expression level was elevated in protoplasts co-transfected with PP2CA-PYL13, HAI2-PYL13, or HAI3-PYL13, which is consistent with PYL13 inhibition of these PP2Cs in an ABA-independent manner in vivo (FIG. 4A). To exclude interference by endogenous PP2Cs in wild type protoplasts and to assess the ABA-independent selective inhibition of PP2Cs by PYL13, PYL13 was co-expressed with PP2CA, HAI1, HAI2, and HAI3 in abi1/hab1/abi2 triple mutant protoplasts, as shown in FIG. 4C. After transfection, protoplasts were incubated for 4.5 h under light in the absence of ABA. Error bars indicate s.e.m. (n=3).
Expression of RD29B-LUC in the absence of ABA was increased in the transfections of PYL9-K63Q/L89F or PYL11-K39Q/L66F together with SnRK2.6 and ABF2 to a considerable level. The ABA-independent RD29B-LUC expression is about 70% of that in the presence of 5 μM ABA in the transfection of PYL11-K39Q/L66F, while about 30˜60% in the transfection of PYL9-K63Q/L89F (FIG. 4). […] RD29B-LUC was used as the ABA-responsive reporter. ZmUBQ-GUS was used as the internal control. After transfection, protoplasts were incubated for 4.5 h under light in the absence of ABA (open bars) or in the presence of 5 μM ABA (closed bars). Error bars indicate s.e.m. (n=4).
as §1
Before transfection, protoplasts were changed into MMg solution (4 mM MES, pH 5.7, 0.4 M mannitol, and 15 mM MgCl2) to a final concentration of 2×10^5 cells per microliter. Protoplasts (100 μl) were gently and thoroughly mixed with the plasmid DNA mixture (less than 10 μl) and 110 μl of PEG solution (40% w/v PEG-4000, 0.2 M mannitol, and 100 mM CaCl2), incubated for 5 min, washed with 440 μl of W5 solution, and resuspended in 50 μl of WI solution (4 mM MES, pH 5.7, 0.5 M mannitol, and 20 mM KCl). After transfection, protoplasts were incubated in WI solution without ABA or with 5 μM ABA under light. The protoplasts were harvested after 4.5 h, frozen in liquid N2, and stored at −80° C.
The frozen protoplasts were resuspended in 50 μl of protoplast lysis buffer containing 2.5 mM Tris-phosphate, pH 7.8, 1 mM DTT, 2 mM DACTAA, 10% (v/v) glycerol, and 1% (v/v) Triton X-100. Protoplast lysates (20 μl) were mixed with 100 μl of LUC mix (PROMEGA), and LUC luminescence was measured with a plate reader (Wallac VICTOR2 plate reader).
Protoplast lysates (2 μl) were mixed with 10 μl of 4-methylumbelliferyl β-D-glucuronide (MUG) substrate mix (10 mM Tris-HCl, pH 8, 1 mM MUG [GOLD BIOTECHNOLOGY], and 2 mM MgCl2). After the mixture was kept for 30 min at 37° C., 100 μl of 0.2 M Na2CO3 was added, and GUS activity was measured using the plate reader with the excitation filter at 355 nm and the emission filter at 460 nm.
All the plasmids used in this assay were purified with the QIAGEN Plasmid Maxi Kit or the QIAGEN Plasmid Midi Kit. The quality of plasmid DNA is important for high transfection efficiency. RD29B::LUC (7 μg of plasmid per transfection) was used as the ABA-responsive reporter. ZmUBQ::GUS (2 μg of plasmid per transfection) was used as the internal control. […]

| Molecule | ABA-dependent induction of RD29B-LUC expression (RD29B-LUC expression [1]) | ABA-independent RD29B-LUC expression, as share of that in the presence of 5 μM ABA (RD29B-LUC expression [2]) | RD29B-LUC expression (RD29B-LUC expression [1]; with ABI1, HAB1, HAB2, HAI1, and AHG1, SnRK2.6 and ABF2) | expression of RD29B-LUC in the absence of ABA (RD29B-LUC expression [2]; abi1/hab1/abi2 protoplasts, with PP2CA, HAI2, or HAI3, SnRK2.6 and ABF2) |
| --- | --- | --- | --- | --- |
| B1 | cannot antagonize | about 70% | – | – |
| B2 | restored RD29B-LUC expression | – | – | – |
| B3 | cannot antagonize | 30˜60% | – | – |
| B4 | could partially confer | – | conferred an ABA-dependent induction | – |
| B5 | could partially confer | – | – | – |
| B6 | could partially confer | – | – | abolished |
| B7 | could partially confer | – | – | – |
